Measured values as given in US20230029453A1 (Janssen / Centocor, published 2023).

B1: P59 9-mer NMVENGCYL (FOXA1 F254V) (peptide)
peptide: NMVENGCYL
notes: Synthetic 9-mer
B2: P37 9-mer GVLRRLLCR (TSTD1-F11R fusion) (peptide)
peptide: GVLRRLLCR
notes: Synthetic 9-mer
B3: P50 9-mer IQYSCMGLM (AR W742C) (peptide)
peptide: IQYSCMGLM
notes: Synthetic 9-mer
B4: P35 9-mer NSKMALNSL (TMPRSS2-ERG fusion) (peptide)
peptide: NSKMALNSL
notes: Synthetic 9-mer
B5: P77 9-mer FFKRAAEGF (AR-V3) (peptide)
peptide: FFKRAAEGF
notes: Synthetic 9-mer
B6: P16 9-mer STRRAVRRM (MSMB-NCOA4 fusion) (peptide)
peptide: STRRAVRRM
notes: Synthetic 9-mer
B7: P27 9-mer FPVGAEGTF (FAM126B-ORC2 fusion) (peptide)
peptide: FPVGAEGTF
notes: Synthetic 9-mer
B8: Peptide 5, 9-mer LYHREKQLI derived from P22 (SEQ ID NO: 1003) (peptide)
peptide: LYHREKQLI

target: T1, HLA-A*03:01 (human, biotinylated heavy chain); assay: UV peptide exchange; HLA class I ELISA
T1 construct: Conditional HLA class I complex as for m1
Experimental: (§1) The HLA class I ELISA is an enzyme immunoassay based on the detection of beta2-microglobulin (B2M) of (peptide-stabilized) HLA class I complexes. To this end streptavidin was bound onto polystyrene microtiter wells. […] Subsequently, horseradish peroxidase (HRP)-conjugated antibody to human B2M was added. […] In the latter case B2M was removed during the washing step. After removal of non-bound HRP conjugate by washing, a substrate solution was added to the wells. A coloured product formed in proportion to the amount of intact HLA complex present in the samples. After the reaction was terminated by the addition of a stop solution, absorbance was measured in a microtiter plate reader.
(§2) Higher percentages correspond to stronger binding to the HLA allele.

| Binder | exchange rate with Pos [%] |
| --- | --- |
| B1 | 4.5 |
| B2 | 6.4 |
| B3 | 5.5 |
| B4 | 4.2 |
| B5 | 2.8 |
| B6 | 6.1 |
| B7 | 4.5 |

target: T2, HLA-B*07:02 (human, biotinylated heavy chain); assay: UV peptide exchange; HLA class I ELISA;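 for Average %: ELISA detecting beta2-microglobulin of intact HLA class I complexes captured on streptavidin wells after UV-induced exchange, absorbance read-out, reference is UV-irradiated conditional complex lacking rescue peptide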;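 for Exch I (%): ELISA detecting beta2-microglobulin of intact HLA class I complexes captured on streptavidin wells after UV-induced exchange, absorbance read-out, reference is UV-irradiated conditional complex lacking rescue peptide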
T2 construct: Conditional HLA class I complex as for m1
Experimental: as §1, §2

| Binder | exchange rate with Pos [%] |
| --- | --- |
| B1 | 7.5 |
| B3 | 10.4 |
| B4 | 12.1 |
| B5 | 14.2 |
| B6 | 13.7 |
| B7 | 7.8 |

target: T3, HLA-B*08:01 (human, biotinylated heavy chain); assay: UV peptide exchange; HLA class I ELISA
T3 construct: Conditional HLA class I complex as for m1
Experimental: as §1, §2

| Binder | exchange rate with Pos [%] |
| --- | --- |
| B1 | 5.5 |
| B2 | 3.3 |
| B3 | 4.7 |
| B4 | 13.7 |
| B5 | 3.4 |
| B6 | 6.2 |
| B7 | 6.4 |

target: T4, HLA-A*02:01 (human, biotinylated heavy chain); assay: UV peptide exchange; HLA class I ELISA;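 for Average %: conditional HLA class I complexes UV-irradiated with peptide, captured on streptavidin wells, intact complex read as HRP anti-B2M absorbance, higher means more binding, control irradiated without rescue peptide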;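 for Exch I (%): conditional HLA class I complexes UV-irradiated with peptide, captured on streptavidin wells, intact complex read as HRP anti-B2M absorbance, higher means more binding, control irradiated without rescue peptide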
T4 construct: Conditional HLA class I complex as for m1
Experimental: as §1, §2

| Binder | exchange rate with Pos [%] |
| --- | --- |
| B1 | 11.9 |
| B2 | 12.5 |
| B3 | 8.8 |
| B4 | 12.5 |
| B6 | 10.4 |
| B7 | 10 |

target: T5, HLA-A*01:01 (human, biotinylated heavy chain); assay: UV peptide exchange; HLA class I ELISA
T5 construct: Conditional HLA class I complex (heavy chain + B2M) first held by a UV-labile peptide; the tested peptide is exchanged in after UV cleavage
Experimental: as §1, §2

| Binder | exchange rate with Pos [%] |
| --- | --- |
| B1 | 2.2 |
| B2 | 1.4 |
| B3 | 2.3 |
| B4 | 2.5 |
| B5 | 1.9 |
| B6 | 5.5 |
| B7 | 4.8 |

target: T6, HLA-A*24:02 (human, biotinylated heavy chain); assay: UV peptide exchange; HLA class I ELISA
T6 construct: Conditional HLA class I complex as for m1
Experimental: as §1, §2

| Binder | exchange rate with Pos [%] |
| --- | --- |
| B1 | -0.5 |
| B2 | -0.1 |
| B3 | 0.1 |
| B4 | 0.2 |
| B5 | 1.7 |
| B6 | 0.8 |
| B7 | 0.7 |

target: T5, HLA-A*01:01; assay: UV peptide exchange; HLA class I ELISA; remark: another data set of the same source
Experimental: (§3) The UV control represented UV-irradiation of conditional HLA class I complex in the absence of a rescue peptide.
as §1

| Binder | Average % [%] | Exch I (%) | Exch II (%) |
| --- | --- | --- | --- |
| B8 | 6 | 6.2 | 5.8 |

target: T7, HLA-B*27:05 (human, biotinylated heavy chain); assay: UV peptide exchange; HLA class I ELISA
T7 construct: Conditional HLA class I complex as for m1
Experimental: as §1

| Binder | Average % [%] | Exch I (%) | Exch II (%) |
| --- | --- | --- | --- |
| B8 | 17.4 | 19.3 | 15.4 |

target: T2, HLA-B*07:02; assay: UV peptide exchange; HLA class I ELISA; remark: another data set of the same source;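 for Average %: ELISA detecting beta2-microglobulin of intact HLA class I complexes captured on streptavidin wells after UV-induced exchange, absorbance read-out, reference is UV-irradiated conditional complex lacking rescue peptide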;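 for Exch I (%): ELISA detecting beta2-microglobulin of intact HLA class I complexes captured on streptavidin wells after UV-induced exchange, absorbance read-out, reference is UV-irradiated conditional complex lacking rescue peptide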
Experimental: as §3, §1

| Binder | Average % [%] | Exch I (%) | Exch II (%) |
| --- | --- | --- | --- |
| B8 | 10.8 | 11.5 | 10 |

target: T4, HLA-A*02:01; assay: UV peptide exchange; HLA class I ELISA; remark: another data set of the same source;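 for Average %: conditional HLA class I complexes UV-irradiated with peptide, captured on streptavidin wells, intact complex read as HRP anti-B2M absorbance, higher means more binding, control irradiated without rescue peptide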;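 for Exch I (%): conditional HLA class I complexes UV-irradiated with peptide, captured on streptavidin wells, intact complex read as HRP anti-B2M absorbance, higher means more binding, control irradiated without rescue peptide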
Experimental: as §3, §1

| Binder | Average % [%] | Exch I (%) | Exch II (%) |
| --- | --- | --- | --- |
| B8 | 11.8 | 11.3 | 12.3 |

target: T6, HLA-A*24:02; assay: UV peptide exchange; HLA class I ELISA; remark: another data set of the same source
Experimental: as §3, §1

| Binder | Average % [%] | Exch I (%) | Exch II (%) |
| --- | --- | --- | --- |
| B8 | 17.8 | 17.5 | 18.1 |

target: T3, HLA-B*08:01; assay: UV peptide exchange; HLA class I ELISA; remark: another data set of the same source
Experimental: as §3, §1

| Binder | Average % [%] | Exch I (%) | Exch II (%) |
| --- | --- | --- | --- |
| B8 | 7.7 | 7.5 | 7.9 |
